Legend:
human IL-36R (human) = human IL-36R (human) (UniProt Q9HB29); assay: flow cytometry on CHO-K1 cells expressing human IL-36R; fit value in the second table under the plot for a flat curve (row ECF corresponds to EC90 of Table 8; no unit in the table, axis in µg/mL)
monkey IL-36R (monkey) = assay: flow cytometry on CHO-K1 cells expressing monkey IL-36R; fit value in the second table under the plot for a flat curve (row ECF corresponds to EC90 of Table 8; no unit in the table, axis in µg/mL)

Sequence of human IL-36R (human) (Q9HB29 20-575): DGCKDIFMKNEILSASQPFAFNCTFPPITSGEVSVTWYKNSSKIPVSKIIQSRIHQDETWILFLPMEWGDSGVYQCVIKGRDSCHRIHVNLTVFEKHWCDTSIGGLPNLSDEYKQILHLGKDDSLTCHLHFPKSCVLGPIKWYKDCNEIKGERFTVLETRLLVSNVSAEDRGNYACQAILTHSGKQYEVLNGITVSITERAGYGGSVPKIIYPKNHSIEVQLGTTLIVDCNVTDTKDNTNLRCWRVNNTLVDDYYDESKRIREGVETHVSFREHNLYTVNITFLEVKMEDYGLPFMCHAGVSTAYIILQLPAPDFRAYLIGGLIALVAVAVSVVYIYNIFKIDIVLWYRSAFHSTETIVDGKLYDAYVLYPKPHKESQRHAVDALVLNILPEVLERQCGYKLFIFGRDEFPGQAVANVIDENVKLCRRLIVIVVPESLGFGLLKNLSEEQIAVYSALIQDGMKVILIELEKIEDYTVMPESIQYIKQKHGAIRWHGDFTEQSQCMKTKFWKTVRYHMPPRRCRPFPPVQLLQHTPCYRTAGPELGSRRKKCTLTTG

Q: For “TNP IgG1 (Fc silence) negative control antibody 900543”, which ECF (human IL-36R (human)) is on record?
A: 0.000494 µg/mL

Q: What about the ECF (monkey IL-36R (monkey)) of the same substance?
A: 0.000457 µg/mL
